Experiments:
MBP-DDX3Y = MBP-DDX3Y (human, UniProt O15523 1-660); test: smFRET
MBP-DDX3X = MBP-DDX3X (human, UniProt O00571 1-662); test: smFRET
MBP-DDX3X, sequence (O00571 whole entry): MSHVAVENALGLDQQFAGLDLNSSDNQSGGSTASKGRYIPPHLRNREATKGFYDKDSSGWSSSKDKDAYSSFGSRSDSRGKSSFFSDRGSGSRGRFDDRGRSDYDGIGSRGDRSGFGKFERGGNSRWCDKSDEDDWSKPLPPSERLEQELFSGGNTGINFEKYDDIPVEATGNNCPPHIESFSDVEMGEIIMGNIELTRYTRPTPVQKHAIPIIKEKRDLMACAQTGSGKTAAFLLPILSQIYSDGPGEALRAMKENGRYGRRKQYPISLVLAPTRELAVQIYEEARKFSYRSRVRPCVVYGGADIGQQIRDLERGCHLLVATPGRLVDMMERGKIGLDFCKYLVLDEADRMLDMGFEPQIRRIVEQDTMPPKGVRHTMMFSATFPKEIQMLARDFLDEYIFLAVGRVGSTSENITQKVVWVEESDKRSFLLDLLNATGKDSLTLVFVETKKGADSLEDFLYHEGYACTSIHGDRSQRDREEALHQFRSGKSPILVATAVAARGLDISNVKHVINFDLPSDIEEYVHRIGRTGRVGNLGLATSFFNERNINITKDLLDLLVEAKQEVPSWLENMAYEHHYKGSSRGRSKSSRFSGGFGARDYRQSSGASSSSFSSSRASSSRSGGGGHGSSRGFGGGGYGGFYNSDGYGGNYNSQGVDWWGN

MBP-DDX3Y, sequence (O15523 whole entry): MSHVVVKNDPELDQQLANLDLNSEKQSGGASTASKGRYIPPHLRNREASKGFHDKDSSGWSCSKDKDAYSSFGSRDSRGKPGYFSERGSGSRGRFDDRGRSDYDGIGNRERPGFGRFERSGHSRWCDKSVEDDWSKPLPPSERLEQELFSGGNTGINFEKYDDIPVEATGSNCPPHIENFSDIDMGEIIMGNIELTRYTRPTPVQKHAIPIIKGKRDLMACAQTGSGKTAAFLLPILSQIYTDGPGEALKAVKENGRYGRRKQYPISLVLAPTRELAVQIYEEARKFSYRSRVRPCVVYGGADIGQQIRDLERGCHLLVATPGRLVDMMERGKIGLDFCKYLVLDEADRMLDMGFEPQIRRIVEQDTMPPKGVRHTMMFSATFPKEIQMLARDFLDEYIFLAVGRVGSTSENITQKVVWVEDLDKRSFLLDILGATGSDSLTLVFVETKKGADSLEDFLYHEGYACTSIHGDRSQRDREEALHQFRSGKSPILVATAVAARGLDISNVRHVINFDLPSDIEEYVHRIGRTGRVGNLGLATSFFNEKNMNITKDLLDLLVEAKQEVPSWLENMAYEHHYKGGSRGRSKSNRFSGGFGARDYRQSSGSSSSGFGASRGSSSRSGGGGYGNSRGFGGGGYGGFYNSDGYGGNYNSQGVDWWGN

B1: smFRET dsRNA with 5' poly(U) overhang (dsRNA)
RNA 1: ACCGCUGCCGUCGCUCCG
RNA 2: UUUUUUUUUUUUUUUUUUUUUUUUUUUUUUUUUUUUUUUUUUUUUUUUUUCGGAGCGACGGCAGCGGU
- binding result (MBP-DDX3Y): binds
- binding result (MBP-DDX3X): binds
